{"source": "patent US20240293565A1", "about": "(BEIJING SINOTAU BIO PHARMACEUTICALS TECHNOLOGY, published 2024)", "key": {"[1]": {"molecular_target": "T1, human HER3 on the cell surface (human, UniProt P21860 20-1342)", "T1 sequence (P21860 20-1342)": "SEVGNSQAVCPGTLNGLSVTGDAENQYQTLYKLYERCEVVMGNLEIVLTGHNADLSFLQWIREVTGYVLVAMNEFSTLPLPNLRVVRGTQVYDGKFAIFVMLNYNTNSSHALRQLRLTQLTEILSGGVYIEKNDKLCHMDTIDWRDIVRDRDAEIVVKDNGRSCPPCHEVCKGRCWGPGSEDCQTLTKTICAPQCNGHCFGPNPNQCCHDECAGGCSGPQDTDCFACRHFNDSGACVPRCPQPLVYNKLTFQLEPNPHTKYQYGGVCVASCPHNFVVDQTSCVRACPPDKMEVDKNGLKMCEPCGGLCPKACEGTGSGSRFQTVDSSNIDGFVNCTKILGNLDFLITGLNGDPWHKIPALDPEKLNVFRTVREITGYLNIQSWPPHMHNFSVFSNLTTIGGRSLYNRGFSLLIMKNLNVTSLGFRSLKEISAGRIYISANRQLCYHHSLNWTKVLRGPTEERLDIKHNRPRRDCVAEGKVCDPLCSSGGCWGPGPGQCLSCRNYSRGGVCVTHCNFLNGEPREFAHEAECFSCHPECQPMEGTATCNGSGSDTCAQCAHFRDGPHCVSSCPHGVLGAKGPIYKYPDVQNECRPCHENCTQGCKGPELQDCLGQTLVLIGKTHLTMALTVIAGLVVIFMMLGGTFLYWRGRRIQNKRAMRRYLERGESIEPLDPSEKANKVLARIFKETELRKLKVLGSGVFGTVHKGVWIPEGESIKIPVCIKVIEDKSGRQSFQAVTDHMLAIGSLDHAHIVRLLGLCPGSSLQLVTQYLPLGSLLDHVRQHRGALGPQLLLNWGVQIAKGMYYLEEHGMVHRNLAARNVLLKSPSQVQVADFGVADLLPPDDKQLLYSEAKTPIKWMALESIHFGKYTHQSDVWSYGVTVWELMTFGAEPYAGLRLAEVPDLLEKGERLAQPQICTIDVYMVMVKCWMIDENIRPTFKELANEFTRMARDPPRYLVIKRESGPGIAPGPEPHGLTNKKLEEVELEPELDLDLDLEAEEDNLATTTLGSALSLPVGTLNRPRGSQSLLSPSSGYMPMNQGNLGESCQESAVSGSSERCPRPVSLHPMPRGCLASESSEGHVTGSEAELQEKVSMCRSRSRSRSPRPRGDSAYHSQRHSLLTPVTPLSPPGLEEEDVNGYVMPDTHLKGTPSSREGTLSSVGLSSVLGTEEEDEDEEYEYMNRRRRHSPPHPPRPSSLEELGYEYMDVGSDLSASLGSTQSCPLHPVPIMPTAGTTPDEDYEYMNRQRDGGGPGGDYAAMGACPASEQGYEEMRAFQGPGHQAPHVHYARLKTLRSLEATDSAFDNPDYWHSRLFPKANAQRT", "assay": "cell-based or functional assay"}, "[2]": {"molecular_target": "T1, human HER3 on the cell surface", "assay": "flow cytometry on SP2/0-HER3 cells", "procedure": "ch3F8-MMAE maintains the similar binding affinity to ch3F8. ch3F8-MMAE binding affinity with HER3 was measured with SP2/0-HER3 by FACS."}}}
{"binder": "ch3F8-MMAE (antibody, V domains shown, MC-VC-MMAE conjugated to cysteine residues of the antibody after reduction of disulfide bonds (positions not stated), DAR around 3.8) VH: DVQLQESGPGLVKPSQSLSLTCSVTGYSITSAYYWNWIRQFPGDKLEWMGYISYDGRNNFNPSLKNRISITRDTSKNQFFLKLNSVTSGDTATYYCARDGDYDYFDYWGQGTTLTVSS VL: DIQMTQTTSSLSASLGDRVTISCRASQDISNYLNWYQQKPDGTFKLLIYYTSILHSGVPSRFSGSGSGTDYSLTISNLEQEDIATYFCQQGDTLPPTFGAGTKLELK", "values": [{"measurement": "cytotoxicity IC50 (nM), ATPlite, 7901 cells", "setting": "[1]", "result": 5.74, "unit": "nM"}, {"measurement": "cytotoxicity IC50 (nM), ATPlite, HT-29 cells", "setting": "[1]", "result": 4.67, "unit": "nM"}, {"measurement": "cytotoxicity IC50 (nM), ATPlite, MCF-7 cells", "setting": "[1]", "result": 9.49, "unit": "nM"}, {"measurement": "cytotoxicity IC50 (nM), ATPlite, MDA-MB-453 cells", "setting": "[1]", "result": 0.0401, "unit": "nM"}, {"measurement": "cytotoxicity IC50 (nM), ATPlite, N87 cells", "setting": "[1]", "result": 1.91, "unit": "nM"}, {"measurement": "cytotoxicity IC50 (nM), ATPlite, SK-BR-3 cells", "setting": "[1]", "result": 0.159, "unit": "nM"}, {"measurement": "cytotoxicity IC50 (nM), ATPlite, SP2/0-HER3 cells", "setting": "[1]", "result": 0.486, "unit": "nM"}]}
{"binder": "chimeric 3F8 (antibody, human IgG1, V domains shown, also called ch3F8; Ch3F8) VH: DVQLQESGPGLVKPSQSLSLTCSVTGYSITSAYYWNWIRQFPGDKLEWMGYISYDGRNNFNPSLKNRISITRDTSKNQFFLKLNSVTSGDTATYYCARDGDYDYFDYWGQGTTLTVSS VL: DIQMTQTTSSLSASLGDRVTISCRASQDISNYLNWYQQKPDGTFKLLIYYTSILHSGVPSRFSGSGSGTDYSLTISNLEQEDIATYFCQQGDTLPPTFGAGTKLELK", "values": [{"measurement": "EC50 (read off the curve)", "setting": "[2]", "result": "~0.08", "unit": "µg/mL"}]}
